Consider three molecules from publication PMC7056357.

Like-named read-outs stand apart in the source and are kept apart here.

One assay addresses CCR5-mTFP1 (UniProt P51681).
For the next assay, the target named is CD4-mRFP (human) (UniProt P01730). Put plainly: multicolour TIRF-dSTORM with interaction factor analysis.
Assay [1] deals with T1, CXCR4-mTFP1 (human), P61073.
T1 chain: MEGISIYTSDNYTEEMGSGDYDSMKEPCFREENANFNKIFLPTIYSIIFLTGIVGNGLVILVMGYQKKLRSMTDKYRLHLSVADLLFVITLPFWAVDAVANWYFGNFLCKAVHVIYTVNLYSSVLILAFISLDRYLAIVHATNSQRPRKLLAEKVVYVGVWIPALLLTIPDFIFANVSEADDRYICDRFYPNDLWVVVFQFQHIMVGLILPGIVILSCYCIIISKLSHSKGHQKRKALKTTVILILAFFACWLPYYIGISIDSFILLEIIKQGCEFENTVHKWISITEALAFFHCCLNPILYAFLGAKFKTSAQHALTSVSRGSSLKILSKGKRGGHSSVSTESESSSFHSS
The note with it: remark: other sources report otherwise.

For assay [2] the target is unchanged. Kind of assay: number and brightness. The note with it: remark: other sources report otherwise.
Assay [3] has as its target T2, CXCR4-eYFP (human), P61073.
T2 chain: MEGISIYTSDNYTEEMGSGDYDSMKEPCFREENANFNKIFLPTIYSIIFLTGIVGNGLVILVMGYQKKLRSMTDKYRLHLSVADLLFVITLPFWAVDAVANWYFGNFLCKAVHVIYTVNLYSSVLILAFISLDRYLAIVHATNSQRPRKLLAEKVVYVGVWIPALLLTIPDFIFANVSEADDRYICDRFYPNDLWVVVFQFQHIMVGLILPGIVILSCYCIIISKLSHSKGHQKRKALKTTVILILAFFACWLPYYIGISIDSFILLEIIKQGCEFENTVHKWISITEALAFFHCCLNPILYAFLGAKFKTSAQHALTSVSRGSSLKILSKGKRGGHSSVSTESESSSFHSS
Put plainly: multicolour TIRF-dSTORM with interaction factor analysis. The note with it: remark: other sources report otherwise.

UniProt P51681, sequence (P51681 whole entry): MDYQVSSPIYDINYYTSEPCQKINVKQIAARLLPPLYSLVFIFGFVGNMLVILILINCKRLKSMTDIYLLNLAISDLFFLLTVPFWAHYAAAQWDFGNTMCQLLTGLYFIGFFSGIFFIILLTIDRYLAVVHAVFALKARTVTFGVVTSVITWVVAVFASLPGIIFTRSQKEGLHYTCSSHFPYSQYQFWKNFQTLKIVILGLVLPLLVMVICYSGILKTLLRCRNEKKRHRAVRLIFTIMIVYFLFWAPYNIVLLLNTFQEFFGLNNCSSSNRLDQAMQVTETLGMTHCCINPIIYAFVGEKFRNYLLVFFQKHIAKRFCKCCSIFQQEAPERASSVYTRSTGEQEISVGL

Take “HIV-1 JR-FL Env on HIV_(JR-FL) virions (complex)”: the CCR5 molecules bound to a single Env trimer with CCR5-mTFP1 came out at 2. In the assay with CD4-mRFP (human), this molecule gave a probability of 3 CD4 molecules engaged with 1 Env spike of 0.36 and a probability of 4 CD4 molecules engaged with 1 Env spike of 0.1.

B1: CXCR4-mTFP1, P61073 1-352 (receptor)
chain: MEGISIYTSDNYTEEMGSGDYDSMKEPCFREENANFNKIFLPTIYSIIFLTGIVGNGLVILVMGYQKKLRSMTDKYRLHLSVADLLFVITLPFWAVDAVANWYFGNFLCKAVHVIYTVNLYSSVLILAFISLDRYLAIVHATNSQRPRKLLAEKVVYVGVWIPALLLTIPDFIFANVSEADDRYICDRFYPNDLWVVVFQFQHIMVGLILPGIVILSCYCIIISKLSHSKGHQKRKALKTTVILILAFFACWLPYYIGISIDSFILLEIIKQGCEFENTVHKWISITEALAFFHCCLNPILYAFLGAKFKTSAQHALTSVSRGSSLKILSKGKRGGHSSVSTESESSSFHSS
For the molecule B1, the stoichiometry N in assay [1] and in assay [2] was 2 throughout.

B2: CXCR4-eYFP, P61073 1-352 (receptor)
chain: MEGISIYTSDNYTEEMGSGDYDSMKEPCFREENANFNKIFLPTIYSIIFLTGIVGNGLVILVMGYQKKLRSMTDKYRLHLSVADLLFVITLPFWAVDAVANWYFGNFLCKAVHVIYTVNLYSSVLILAFISLDRYLAIVHATNSQRPRKLLAEKVVYVGVWIPALLLTIPDFIFANVSEADDRYICDRFYPNDLWVVVFQFQHIMVGLILPGIVILSCYCIIISKLSHSKGHQKRKALKTTVILILAFFACWLPYYIGISIDSFILLEIIKQGCEFENTVHKWISITEALAFFHCCLNPILYAFLGAKFKTSAQHALTSVSRGSSLKILSKGKRGGHSSVSTESESSSFHSS
Consider B2, for which the stoichiometry N in assay [3] stood at 2.
